Test results reported in patent US11034736B2, “Anti-viral cnidarins” (priority 2014, dated 2021).
Read-outs that look alike come from different tables or passages of the source.

Columns and labels:
[1] = tested on: HIV-1RF; experiment: XTT-tetrazolium anti-HIV assay, HIV-1RF in CEM-SS cells; type: cell-based; conditions: HIV-1RF, T-tropic laboratory strain, CEM-SS cells, XTT, 6 days
Description: (§1) A 2,3-bis-[2-methoxy-4-nitro-5-sulfophenyl]-2H-tetrazolium-5-carboxanilide inner salt (XTT)-tetrazolium-based assay was used to determine the anti-HIV activity of CNID-1, -2 and -3 against a T-tropic laboratory strain (HIV-1RF) in T-lymphoblastic CEM-SS cells as described previously (Gulakowski et al., J. Virol. Methods, 33: 87-100 (1991)). CEM-SS cells were maintained in RPMI 1640 media without phenol red and supplemented with 10% fetal bovine serum (BioWhittaker), 2 mM L-glutamine (BioWhittaker), and 50 μg/ml gentamicin (BioWhittaker) (complete medium). Exponentially growing cells were washed and resuspended in complete medium, and a 50 μl aliquot containing 5×10^3 cells was added to individual wells of a 96-well round-bottom microtiter plate containing serial dilutions of the respective cnidarin protein in a volume of 100 μl of medium. Stock supernatants of HIV-1RF were diluted in complete medium to yield sufficient cytopathicity (80-90% cell kill in 6 days), and a 50 μl aliquot was added to appropriate wells. Plates were incubated for 6 days at 37° C. and then stained for cellular viability using XTT.
(§2) The HIV reverse transcriptase inhibitor 3′-Azido-3′-deoxythymidine (AZT) was used as a positive control. All assays were carried out in triplicate for all viruses and cells.

[2] = target: HIV-1IIIB gp120 (Human immunodeficiency virus type 1 group M subtype B, UniProt P04578)
Description: Additional ELISA studies were performed to assess the effect of monosaccharides on CNID-1 binding to gp120 and gp41. The plates were prepared with native HIV-1IIIB gp120 (Advanced Biotechnologies, Columbia, Md.) or recombinant HIV-1HxB2 gp41 (Vybion Inc., Ithaca, N.Y.), and 100 ng/well rCNID-1-Trx was added in the presence or absence of 1 mM concentrations of the following sugars: glucose, mannose, galactose, fucose, xylose, N-acetylglucosamine (GlcNAc), N-acetylgalactosamine (GalNAc), or 100 ng/well α-acid glycoprotein (to act as a carrier for sialic acid). The plates were then washed and visualized using anti-CNID-1 polyclonal antibodies as above.
Plates to test the effect of sCD4 on CNID-1 binding to gp120 were prepared with recombinant HIV-1IIIB gp120 (Immuno Diagnostics, Woburn, Mass.) at 4° C. overnight (100 ng/well) and blocked as previously described. Serial dilutions of rCNID-1-Trx were added in the presence (test plate) or absence (control plate) of 50 ng/well sCD4 (sCD4-183, 2-domain, NIH AIDS Research & Reference Reagent Program, Germantown, Md.) and incubated for 1 hr. Plates were washed and visualized as above. Plates to test for the effect of CV-N, SVN or GRFT on CNID-1 binding to gp120 were prepared with recombinant HIV-NIIIB gp120 (Immuno Diagnostics, Woburn, Mass.) at 4° C. overnight (100 ng/well) and blocked as previously described. CV-N (100 ng/well), SVN (100 ng/well) or GRFT (130 ng/well) were added (PBST was added to control wells) and incubated for 30 minutes, followed by serial dilutions of rCNID-1-Trx and further incubated for 75 minutes. The plates were then washed and visualized using anti-CNID-1 polyclonal antibodies as previously outlined.
Plates were prepared with recombinant HIV-1IIIIB gp120 (Immuno Diagnostics, Woburn, Mass.) at 4° C. overnight (100 ng/well) and blocked as previously described. rCNID-1-Trx were added: 250 ng/well for sCD4 test plate or 500 ng/well for the GRFT test plate, and PBST (50 μl/well) to the control plate; incubation done for 2 hrs. The plates were washed as before and serial dilutions of sCD4 (sCD4-183, 2-domain, NIH AIDS Research & Reference Reagent Program, Germantown, Md.) or GRFT were added; incubated for 1 hr 10 minutes. Plates were washed as before. Primary antibodies were added at 100 μl/well: mouse anti-CD4 (ProSci Inc., Poway, Calif.) at 1:1000 dilution or rabbit anti-GRFT at 1:500 dilution; incubation done for 1 hr. The plates were washed as before and peroxidase conjugated secondary antibodies (Thermo Fisher Scientific Inc., Rockford, Ill.) were added at 100 μl/well: goat anti-mouse (sCD4 plate) or goat anti-rabbit (GRFT plate) at a 1:1000 dilution; incubation for 1 hr. The plates were then washed and visualized as previously outlined.

[3] = tested on: HeLa CD4 LTR β-galactosidase cells; experiment: Cytotoxicity in the attachment and fusion assays; type: cell-based
Description: as §2
Attachment and fusion assays were performed in HeLa-CD4-LTR-β-galactosidase cell lines as described previously (Gartner & Popovic, (1990), supra) with the following modifications. Following the interaction of HIV-1IIIIIB with HeLa CD4 LTR β-gal cells, viral attachment to HeLa CD4 LTR β-gal cells was detected as cell-associated p24 antigen following a 1 hour adsorption of virus and vigorous washing for removal of unbound virus. Fusion of HIV-1IIIIB with HeLa CD4 LTR β-gal cells was detected by chemiluminescence using a single-step lysis and detection method (Tropix Gal-screen, Bedford, Mass.) and results reported as EC50 values. Chicago Sky Blue, a polysulfonic acid dye inhibitor of HIV attachment and fusion, was used as a positive control for all assays (Clanton et al., J. Acquired Immune Defic. Syndr., 5: 771-781 (1992)).

[4] = tested on: CEM-SS cells; experiment: Direct toxicity to uninfected CEM-SS control cells (XTT); type: cell-based, human
Description: as §1, §2

B1: CNID-1: HIV-inhibitory protein from soft coral Synthecium sp.; 172 amino acids, 18,122 Da, SEQ ID NO: 1 (protein)
chain: GRATLGQLKTSTIPPVTFDVPFDGANIPQDVRFTIATVNGGKGALYNAELGESAGHTIVLESDGDHPIPGTFDPKSGRGLDYLPRGLVLFSSHNYVGNMKMYTEPDSDITADFPPGTPFGVSSAITGEGSAFQLNTGIDHTGEFEIIPPNTKRNLAGVFDNEIRSVSPTGGK
EC50 [1]: 0.0845 nM
CNID-1 binding to gp120 after CV-N pre-treatment ([2]; CV-N 100 ng/well): did not affect CNID-1 binding
CNID-1 binding to gp120 after GRFT pretreatment ([2]; ELISA): reduced CNID-1 binding to gp120
CNID-1 binding to gp120 after pretreatment with sCD4 ([2]; ELISA): did not block CNID-1 binding to gp120
sCD4 binding to gp120 after pre-treatment with CNID-1 ([2]; ELISA): did not block subsequent binding of sCD4 to gp120
CNID-1 binding to gp120 after SVN pre-treatment ([2]; SVN 100 ng/well): did not affect CNID-1 binding
GRFT binding to gp120 after pretreatment with CNID-1 ([2]; rCNID-1 500 ng/well): did not inhibit GRFT binding to gp120
CNID-1 binding to gp120 in presence of α-acid glycoprotein ([2]; α-acid glycoprotein as carrier of sialic acid): not inhibited
CC50 ([3]; attachment assay, read-out: Inhibition of Attachment CC50): > 55.2 nM
CC50 ([3]; fusion assay, read-out: Inhibition of Fusion CC50): > 55.2 nM
CC50 [4]: 112 nM
